Laboratory results reported in IntAct's records for PubMed 20711168.

B1: Dynamin-2 (Rattus norvegicus (Rat)), P39052 (parent)
chain: MGNRGMEELIPLVNKLQDAFSSIGQSCHLDLPQIAVVGGQSAGKSSVLENFVGRDFLPRGSGIVTRRPLILQLIFSKTEYAEFLHCKSKKFTDFDEVRQEIEAETDRVTGTNKGISPVPINLRVYSPHVLNLTLIDLPGITKVPVGDQPPDIEYQIKDMILQFISRESSLILAVTPANMDLANSDALKLAKEVDPQGLRTIGVITKLDLMDEGTDARDVLENKLLPLRRGYIGVVNRSQKDIEGRKDIRAALAAERKFFLSHPAYRHMADRMGTPHLQKTLNQQLTNHIRESLPTLRSKLQSQLLSLEKEVEEYKNFRPDDPTRKTKALLQMVQQFGVDFEKRIEGSGDQVDTLELSGGARINRIFHERFPFELVKMEFDEKDLRREISYAIKNIHGVRTGLFTPDLAFEAIVKKQVVKLKEPCLKCVDLVIQELISTVRQCTSKLSSYPRLREETERIVTTYIREREGRTKDQILLLIDIEQSYINTNHEDFIGFANAQQRSTQLNKKRAIPNQGEILVIRRGWLTINNISLMKGGSKEYWFVLTAESLSWYKDEEEKEKKYMLPLDNLKIRDVEKGFMSNKHVFAIFNTEQRNVYKDLRQIELACDSQEDVDSWKASFLRAGVYPEKDQAENEDGAQENTFSMDPQLERQVETIRNLVDSYVAIINKSIRDLMPKTIMHLMINNTKAFIHHELLAYLYSSADQSSLMEESAEQAQRRDDMLRMYHALKEALNIIGDISTSTVSTPVPPPVDDTWLQNTSSHSPTPQRRPVSSVHPPGRPPAVRGPTPGPPLIPMPVGATSSFSAPPIPSRPGPQNVFANNDPFSAPPQIPSRPARIPPGIPPGVPSRRAPAAPSRPTIIRPAEPSLLD

Variants of: B1
Details: with sh3k1_human SH3KBP1, Q96B97
sh3k1_human SH3KBP1, Q96B97, sequence (Q96B97 whole entry): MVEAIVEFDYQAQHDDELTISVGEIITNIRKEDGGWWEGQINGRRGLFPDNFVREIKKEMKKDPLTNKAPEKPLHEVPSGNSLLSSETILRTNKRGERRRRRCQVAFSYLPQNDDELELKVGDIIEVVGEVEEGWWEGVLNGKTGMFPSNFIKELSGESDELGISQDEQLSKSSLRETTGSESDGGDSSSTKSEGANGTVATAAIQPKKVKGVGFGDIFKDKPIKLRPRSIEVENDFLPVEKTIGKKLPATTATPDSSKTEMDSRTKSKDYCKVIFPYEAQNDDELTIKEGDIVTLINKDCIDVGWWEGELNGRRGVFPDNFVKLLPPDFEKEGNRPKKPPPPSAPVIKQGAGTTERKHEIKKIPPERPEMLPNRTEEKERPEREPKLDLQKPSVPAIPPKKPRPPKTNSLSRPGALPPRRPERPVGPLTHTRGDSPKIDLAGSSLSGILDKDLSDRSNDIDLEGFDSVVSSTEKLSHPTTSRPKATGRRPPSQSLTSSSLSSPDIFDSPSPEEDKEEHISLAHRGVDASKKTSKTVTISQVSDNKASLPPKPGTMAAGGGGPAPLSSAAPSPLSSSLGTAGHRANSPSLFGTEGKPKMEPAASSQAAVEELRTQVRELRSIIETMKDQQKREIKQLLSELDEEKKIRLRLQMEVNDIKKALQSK

effect of a mutation on the interaction	Variant
disrupting interaction	P765A
disrupting interaction	P767A
